The results in this text go back to US20240376163A1 (published 2024).

In this assay the target is His-tagged CNA. The assay is described as follows: SPR.

A word on the Kd: it is a measure of binding affinity in units of concentration.

No end group written: not given here. *: point of attachment. Biotin = O=C1N[C@H]2[C@H](CS[C@H]2CCCCC(=O)*)N1

B1: CABIN1-L-1 (peptide)
peptide: Biotin-AAAMAGFPPEITVTPPTP
Regarding B1, the affinity, expressed as Kd, was 512 nM.
